B1: C-domain with the linker region of IF3mt (IF3mt(C+L)) (domain or fragment, human, UniProt Q9H2K0 131-278, looked up)
chain: MTGLQILQERQRLREMEKANPKTGPTLRKELILSSNIGQHDLDTKTKQIQQWIKKKHLVQITIKKGKNVDVSENEMEEIFHQILQTMPGIATFSSRPQAVQGGKALMCVLRAFSKNEEKAYKETQETQERDTLNKDHGNDKESNVLHQ
B2: MRPS32 (natural protein, UniProt P82927 33-142, looked up)
chain: KSTYSSLPDDYNCKVELALTSDARTIVCYHPSVDIPYEHTKPIPRPDPVHNNEETHDLVLKTRLEEKSEHLEQGPMIEQLSKMFFTTKHRWYPRGQYHRRRRKLNPPKDR
B3: MRPS36 (natural protein, UniProt P82908 1-103, looked up)
chain: MMGSKMASASRVVQVVKPHTPLIRFPDRRDNPKPNVSEVLRSAGLPSHTSSISQHSKGSKSPDWLMHQGPPDTAEMIKTLPQKYRRKLVSQEEIEFIQRGGPE
B4: IF3mt lacking the N- and C-terminal extensions (IF3mtΔNC) (domain or fragment, human, UniProt Q9H2K0 61-245, looked up)
chain: TQNEGKKTKKNKTAFSNVGRKISQRVIHLFDEKGNDLGNMHRANVIRLMDERDLRLVQRNTSTEPAEYQLMTGLQILQERQRLREMEKANPKTGPTLRKELILSSNIGQHDLDTKTKQIQQWIKKKHLVQITIKKGKNVDVSENEMEEIFHQILQTMPGIATFSSRPQAVQGGKALMCVLRAFSK

Legend:
Experiment in all cases: cross-linking
PTCD3 = PTCD3 (bovine (endogenous in bovine …, UniProt Q2KI62 38-688))
MRPS29 = MRPS29 (bovine (endogenous in bovine …, UniProt P82922 18-397))
[1] = target: Full length mature human mitochondrial translational initiation factor 3 (IF3mt) (human, UniProt Q9H2K0 32-278)
[2] = target: B4
[3] = target: B1
MRPS18-2 = MRPS18-2 (bovine (endogenous in bovine …, UniProt P82918 36-258))

Chain of PTCD3 (bovine (Q2KI62 38-688): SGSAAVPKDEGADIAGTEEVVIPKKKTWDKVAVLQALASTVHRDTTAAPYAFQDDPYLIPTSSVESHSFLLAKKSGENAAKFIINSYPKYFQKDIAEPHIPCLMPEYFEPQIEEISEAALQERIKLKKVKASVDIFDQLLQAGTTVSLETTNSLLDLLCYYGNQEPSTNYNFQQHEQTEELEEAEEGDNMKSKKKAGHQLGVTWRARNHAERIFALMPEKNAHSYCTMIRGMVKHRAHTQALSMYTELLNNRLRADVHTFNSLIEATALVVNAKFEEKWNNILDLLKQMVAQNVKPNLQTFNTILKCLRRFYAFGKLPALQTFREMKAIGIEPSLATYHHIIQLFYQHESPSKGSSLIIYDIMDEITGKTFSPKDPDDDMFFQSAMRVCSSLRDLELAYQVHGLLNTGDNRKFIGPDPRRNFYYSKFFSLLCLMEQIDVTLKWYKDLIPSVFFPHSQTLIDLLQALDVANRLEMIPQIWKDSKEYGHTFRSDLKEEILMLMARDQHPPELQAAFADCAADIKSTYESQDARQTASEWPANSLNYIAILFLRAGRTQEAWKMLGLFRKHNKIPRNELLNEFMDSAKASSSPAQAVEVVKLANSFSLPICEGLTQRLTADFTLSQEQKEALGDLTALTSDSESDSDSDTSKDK

Row | binding result (PTCD3) | binding result (MRPS29) | binding result [1] | binding result [2] | binding result [3] | binding result (MRPS18-2) | Binder
1 | binds | binds |  |  |  |  | B1
2 |  |  | binds | binds | binds |  | B2
3 |  |  | binds |  | binds |  | B3
4 | binds | binds |  |  |  | binds | B4

From PMC3223260 (Biochimica et biophysica acta, 2011)
